Positions of bridges follow the written chain, without caps; N, C: chain ends. No end group written: not given here.
Columns and labels:
human plasma kallikrein = human plasma kallikrein (Homo sapiens, UniProt P03952); assay: Kallikrein inhibition assay, Ki,app; assay type: biochemical; settings: fold higher than aprotinin
Method: The potency assay of KI polypeptides, such as PEP-1, described herein was a kinetic test, which measured fluorescence generation following the kallikrein-mediated cleavage of a substrate, […] amino methyl coumarin. A known amount of kallikrein was incubated with buffer, with a serially diluted KI polypeptide reference standard, or serially diluted KI polypeptide test samples. Each sample was run in triplicate. The substrate solution was added, and the plate read immediately using an excitation wavelength of 360 nm and an emission wavelength of 460 nm. At least two each of the reference standard and sample curves were required to have an R-squared value of ≧0.95 to be considered valid.

kallikrein = assay: Kallikrein inhibitory activity in plasma and CSF of non-ischemic mice after iv treatment; assay type: in vivo
Method: […] analysis was performed to determine whether DX-88 was able to cross the blood-brain barrier. Non-ischemic mice were treated iv with saline or DX-88 (10 μg/mouse or 30 μg/mouse) and plasma was drawn 30 or 60 min after administration. Thirty minutes after DX-88 treatment, plasma kallikrein inhibitory activity was 2 and 4 times higher in mice treated with […], respectively.
The same dose of DX-88 was given at the beginning of ischemic period. Twenty four hours after ischemia, neurological deficits and infarct size were evaluated.

human plasma kallikrein, sequence (P03952 20-390 partner limits assumed): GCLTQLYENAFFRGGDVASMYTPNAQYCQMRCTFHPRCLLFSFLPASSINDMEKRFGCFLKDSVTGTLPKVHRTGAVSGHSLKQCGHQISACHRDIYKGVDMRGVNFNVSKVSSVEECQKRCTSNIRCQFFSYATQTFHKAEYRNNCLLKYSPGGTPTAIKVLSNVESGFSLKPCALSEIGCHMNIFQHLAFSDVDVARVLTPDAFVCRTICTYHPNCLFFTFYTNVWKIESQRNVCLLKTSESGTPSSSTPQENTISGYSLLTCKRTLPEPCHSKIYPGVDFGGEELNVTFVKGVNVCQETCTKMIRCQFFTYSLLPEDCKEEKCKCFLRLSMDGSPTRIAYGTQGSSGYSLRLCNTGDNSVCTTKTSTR
human plasma kallikrein, sequence (P03952 391-638 limits assumed): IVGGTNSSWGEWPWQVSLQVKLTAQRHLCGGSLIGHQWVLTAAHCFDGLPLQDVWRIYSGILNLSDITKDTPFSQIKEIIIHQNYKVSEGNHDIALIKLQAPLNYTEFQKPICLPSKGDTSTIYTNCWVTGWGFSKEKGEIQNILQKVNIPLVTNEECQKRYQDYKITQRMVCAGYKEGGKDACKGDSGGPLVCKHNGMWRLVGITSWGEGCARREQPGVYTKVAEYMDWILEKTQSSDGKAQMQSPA

Sequence: EAMHSFCAFKADDGPCRAAHPRWFFNIFTRQCEEFIYGGCEGNQNRFESLEECKKMCTRD (disulfide 7-57, 16-40, 32-53) [PEP-1]
- affinity (Ki) for kallikrein relative to aprotinin (human plasma kallikrein): 1000 times
- affinity (Ki) for kallikrein relative to aprotinin (human plasma kallikrein; listed as DX-88): at least 1000 times
- inhibitory activity in cerebral spinal fluid (CSF) (kallikrein; 30 μg iv, CSF drawn 30 or 60 min after administration): marked inhibitory activity
- inhibitory activity in CSF (kallikrein; 30 μg/mouse iv, thirty minutes after treatment): marked inhibitory activity
- crossing of the blood-brain barrier (kallikrein; intact blood-brain barrier, active form): can cross rapidly the intact blood-brain barrier

From patent US9114144B2, “Kallikrein-inhibitor therapies” (Dyax Corp., priority 2002, dated 2015)
